What was measured:
HeLa Kyoto [1] = experiment: solubility in G1/S (NP-40 vs SDS abundance) (log2 ratio); higher = more soluble; details: cell cycle stage: G1/S
HeLa Kyoto [2] = experiment: melting temperature (median over replicates), in situ; higher = more thermally stable
HeLa Kyoto [3] = experiment: solubility change mitosis vs G1/S (difference of NP-40 vs SDS log2 ratios) (log2 ratio difference); higher = more soluble in mitosis
HeLa Kyoto [4] = experiment: thermal stability score vs G1/S (z-score of summed log2 fold changes over temperatures); higher = more thermally stable than in G1/S
[5] = cell cycle stage: early G1 (4.5 h after nocodazole release)
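Wherever melting temperature (median over replicates), in situ is given: HeLa Kyoto cells synchronized by double thymidine or nocodazole block, proteins quantified by TMT10plex mass spectrometry, three independent biological replicates.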
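Wherever solubility change mitosis vs G1/S (difference of NP-40 vs SDS log2 ratios) is given: synchronized HeLa Kyoto cells (double thymidine block for G1/S, nocodazole release for mitosis), protein amounts in NP-40 versus SDS lysates quantified by mass spectrometry, three biological replicates.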
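Wherever solubility in G1/S (NP-40 vs SDS abundance) is given: HeLa Kyoto cells arrested at G1/S by double thymidine block, proteins quantified by TMT10plex mass spectrometry in mild NP-40 versus SDS extracts, three biological replicates.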
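Wherever thermal stability score vs G1/S (z-score of summed log2 fold changes over temperatures) is given: synchronized HeLa Kyoto cells, proteins quantified by TMT10plex mass spectrometry, three biological replicates, mitosis taken 0.5 h after nocodazole release, G1/S directly after double thymidine block.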

Row | Sequence | solubility in G1/S (log2) (HeLa Kyoto [1]) | melting temperature (HeLa Kyoto [2]; cell cycle stage: G1/S) | melting temperature (HeLa Kyoto [2]; cell cycle stage: mitosis) | solubility change mitosis (log2) (HeLa Kyoto [3]) | thermal stability score (HeLa Kyoto [4]; [5]) | thermal stability score (HeLa Kyoto [4]; cell cycle stage: mitosis)
1 | MAWRRREASVGARGVLALALLALALCVPGARGRALEWFSAVVNIEYVDPQTNLTVWSVSESGRFGDSSPKEGAHGLVGVPWAPGGDLEGCAPDTRFFVPEPGGRGAAPWVALVARGGCTFKDKVLVAARRNASAVVLYNEERYGNITLPMSHAGTGNIVVIMISYPKGREILELVQKGIPVTMTIGVGTRHVQEFISGQSVVFVAIAFITMMIISLAWLIFYYIQRFLYTGSQIGSQSHRKETKKVIGQLLLHTVKHGEKGIDVDAENCAVCIENFKVKDIIRILPCKHIFHRICIDPWLLDHRTCPMCKLDVIKALGYWGEPGDVQEMPAPESPPGRDPAANLSLALPDDDGSDDSSPPSASPAESEPQCDPSFKGDAGENTALLEAGRSDSRHGGPIS [RNF149] | -0.136 | 53.8 °C | 54.1 °C | -0.076 | -0.202 | -3.79
2 | MCDFTEDQTAEFKEAFQLFDRTGDGKILYSQCGDVMRALGQNPTNAEVLKVLGNPKSDEMNVKVLDFEHFLPMLQTVAKNKDQGTYEDYVEGLRVFDKEGNGTVMGAEIRHVLVTLGEKMTEEEVEMLVAGHEDSNGCINYEAFVRHILSG [MYL6] | -0.12 | 51.8 °C | 51.7 °C | 0.21 | -3.33 | -1.53
3 | MCDIEEATNQLLDVNLHENQKSVQVTESDLGSESELLVTIGATVPTGFEQTAADEVREKLGSSCKISRDRGKIYFVISVESLAQVHCLRSVDNLFVVVQEFQDYQFKQTKEEVLKDFEDLAGKLPWSNPLKVWKINASFKKKKAKRKKINQNSSKEKINNGQEVKIDQRNVKKEFTSHALDSHILDYYENPAIKEDVSTLIGDDLASCKDETDESSKEETEPQVLKFRVTCNRAGEKHCFTSNEAARDFGGAVQDYFKWKADMTNFDVEVLLNIHDNEVIVGIALTEESLHRRNITHFGPTTLRSTLAYGMLRLCDPLPYDIIVDPMCGTGAIPIEGATEWSDCFHIAGDNNPLAVNRAANNIASLLTKSQIKEGKPSWGLPIDAVQWDICNLPLRTGSVDIIVTDLPFGKRMGSKKRNWNLYPACLREMSRVCTPTTGRAVLLTQDTKCFTKALSGMRHVWRKVDTVWVNVGGLRAAVYVLIRTPQAFVHPSEQDGERGTLWQCKE [THUMPD3] | 0.109 | 52.9 °C | 53 °C | -0.147 | -1 | -2.07
4 | MCGDCVEKEYPNRGNTCLENGSFLLNFTGCAVCSKRDFMLITNKSLKEEDGEEIVTYDHLCKNCHHVIARHEYTFSIMDEFQEYTMLCLLCGKAEDTISILPDDPRQMTLLF [CHURC1] | 0.0387 | 51.5 °C | 52.5 °C | -0.361 | -2.8 | -3.3
5 | MCGNTMSVPLLTDAATVSGAERETAAVIFLHGLGDTGHSWADALSTIRLPHVKYICPHAPRIPVTLNMKMVMPSWFDLMGLSPDAPEDEAGIKKAAENIKALIEHEMKNGIPANRIVLGGFSQGGALSLYTALTCPHPLAGIVALSCWLPLHRAFPQAANGSAKDLAILQCHGELDPMVPVRFGALTAEKLRSVVTPARVQFKTYPGVMHSSCPQEMAAVKEFLEKLLPPV [LYPLA2] | 0.543 | 53.3 °C | 53 °C | 0.185 | -1.02 | 0.00875
6 | MCNTPTYCDLGKAAKDVFNKGYGFGMVKIDLKTKSCSGVEFSTSGHAYTDTGKASGNLETKYKVCNYGLTFTQKWNTDNTLGTEISWENKLAEGLKLTLDTIFVPNTGKKSGKLKASYKRDCFSVGSNVDIDFSGPTIYGWAVLAFEGWLAGYQMSFDTAKSKLSQNNFALGYKAADFQLHTHVNDGTEFGGSIYQKVNEKIETSINLAWTAGSNNTRFGIAAKYMLDCRTSLSAKVNNASLIGLGYTQTLRPGVKLTLSALIDGKNFSAGGHKVGLGFELEA [VDAC3] | -0.0264 | 61.6 °C | 59.9 °C | -0.0561 | -1.43 | -4.76
7 | MDAAEVEFLAEKELVTIIPNFSLDKIYLIGGDLGPFNPGLPVEVPLWLAINLKQRQKCRLLPPEWMDVEKLEKMRDHERKEETFTPMPSPYYMELTKLLLNHASDNIPKADEIRTLVKDMWDTRIAKLRVSADSFVRQQEAHAKLDNLTLMEINTSGTFLTQALNHMYKLRTNLQPLESTQSQDF [GINS2] | 0.24 | 50.9 °C | 52.4 °C | 0.34 | -1.69 | -2.97

Reference: the supplement of paper PMC5998384
